In the series the target is Fibrinogen (Homo sapiens, UniProt P02671-2;P02675;P02679-2 P02671-2:20-644,P02675:31-491,P02679-2:27-437). As to the kind of experiment: filter; low class; printed l mM, probably uM; clone printed FCNB. As to conditions: chain copies: 2.
Fibrinogen, sequence (P02671 other isoform, or with tags, fused parts or gaps, chain 1 of 3): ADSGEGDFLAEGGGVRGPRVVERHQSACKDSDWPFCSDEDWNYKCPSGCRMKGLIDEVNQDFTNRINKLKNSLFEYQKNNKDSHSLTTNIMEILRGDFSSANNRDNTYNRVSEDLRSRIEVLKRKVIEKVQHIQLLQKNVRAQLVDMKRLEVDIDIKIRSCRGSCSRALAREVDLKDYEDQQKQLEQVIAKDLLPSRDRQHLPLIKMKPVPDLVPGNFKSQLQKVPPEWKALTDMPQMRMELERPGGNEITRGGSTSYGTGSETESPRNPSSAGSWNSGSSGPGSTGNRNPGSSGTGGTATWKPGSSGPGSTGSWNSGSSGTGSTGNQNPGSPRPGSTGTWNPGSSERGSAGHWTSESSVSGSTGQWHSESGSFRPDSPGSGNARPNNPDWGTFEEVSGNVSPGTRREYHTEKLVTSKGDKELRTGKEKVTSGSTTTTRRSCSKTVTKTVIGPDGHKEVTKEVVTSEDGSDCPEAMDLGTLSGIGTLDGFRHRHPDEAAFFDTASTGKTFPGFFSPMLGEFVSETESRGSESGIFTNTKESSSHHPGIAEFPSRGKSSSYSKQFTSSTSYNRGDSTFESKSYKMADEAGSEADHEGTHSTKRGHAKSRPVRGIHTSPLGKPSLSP
Fibrinogen, sequence (P02675 31-491, chain 2 of 3): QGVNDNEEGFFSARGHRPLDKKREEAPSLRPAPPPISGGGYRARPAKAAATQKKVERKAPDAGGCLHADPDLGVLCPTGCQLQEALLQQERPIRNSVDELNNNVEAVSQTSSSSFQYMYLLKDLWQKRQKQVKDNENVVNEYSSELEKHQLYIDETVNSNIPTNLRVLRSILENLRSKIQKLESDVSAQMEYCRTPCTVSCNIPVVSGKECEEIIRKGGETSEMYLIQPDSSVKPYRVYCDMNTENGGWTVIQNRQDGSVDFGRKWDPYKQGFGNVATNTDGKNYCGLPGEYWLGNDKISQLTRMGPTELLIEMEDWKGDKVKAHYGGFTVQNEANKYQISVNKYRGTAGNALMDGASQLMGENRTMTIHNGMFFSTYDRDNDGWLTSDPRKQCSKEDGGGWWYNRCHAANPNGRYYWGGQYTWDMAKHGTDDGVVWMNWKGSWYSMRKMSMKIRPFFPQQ
Fibrinogen, sequence (P02679 other isoform, or with tags, fused parts or gaps, chain 3 of 3): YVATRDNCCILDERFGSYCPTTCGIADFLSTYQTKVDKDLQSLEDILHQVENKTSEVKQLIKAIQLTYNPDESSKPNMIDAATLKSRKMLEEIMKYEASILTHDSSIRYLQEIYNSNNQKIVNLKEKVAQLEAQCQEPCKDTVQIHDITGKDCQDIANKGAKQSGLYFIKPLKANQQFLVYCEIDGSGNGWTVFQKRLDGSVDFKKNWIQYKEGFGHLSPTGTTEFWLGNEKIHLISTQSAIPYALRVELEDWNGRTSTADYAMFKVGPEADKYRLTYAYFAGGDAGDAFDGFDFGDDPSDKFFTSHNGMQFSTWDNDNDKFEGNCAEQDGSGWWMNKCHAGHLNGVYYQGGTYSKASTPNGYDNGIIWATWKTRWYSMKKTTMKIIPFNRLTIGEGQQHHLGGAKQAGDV

B1: FCN8 (ssRNA)
RNA: GGGAGAUAAGAAUAAACGCUCAAUAGCAAGUCCCACAUCCCAGACGGGCUAAAAAGAGGUGGAUUCGACAGGAGGCUCACAACAGGC
modifications: 2'-F pyrimidines
Broadly, the Kd is the constant that tells how readily two partners part at equilibrium. B1: the dissociation constant (Kd) is more than 1000 nM.

(Values after patent US6127119, “Nucleic acid ligands of tissue target” (NeXstar Pharmaceuticals, Inc.).)
